# In patent US20220395553A1 (COHBAR, published 2022):
# Square brackets hold non-standard residues; d marks the D form. Ends that are not written are not given here.
# B1: SEQ ID NO: 57 (peptide)
# peptide: LERYHHS[dA]RSSLRPYTK-NH2
# modifications: N-terminus assumed
# SMILES: CC(C)C[C@H](NC(=O)[C@H](CO)NC(=O)[C@H](CO)NC(=O)[C@H](CCCNC(=N)N)NC(=O)[C@@H](C)NC(=O)[C@H](CO)NC(=O)[C@H](Cc1c[nH]cn1)NC(=O)[C@H](Cc1c[nH]cn1)NC(=O)[C@H](Cc1ccc(O)cc1)NC(=O)[C@H](CCCNC(=N)N)NC(=O)[C@H](CCC(=O)O)NC(=O)[C@@H](N)CC(C)C)C(=O)N[C@@H](CCCNC(=N)N)C(=O)N1CCC[C@H]1C(=O)N[C@@H](Cc1ccc(O)cc1)C(=O)N[C@H](C(=O)N[C@@H](CCCCN)C(N)=O)[C@@H](C)O
# Molecular target: ProLink tagged human CXCR4 (C2C12 CXCR4 β-Arrestin cell line) (human, UniProt P61073 1-352)
# Assay: cell-based or functional assay
# Chain of ProLink tagged human CXCR4 (C2C12 CXCR4 β-Arrestin cell line) (P61073 whole entry): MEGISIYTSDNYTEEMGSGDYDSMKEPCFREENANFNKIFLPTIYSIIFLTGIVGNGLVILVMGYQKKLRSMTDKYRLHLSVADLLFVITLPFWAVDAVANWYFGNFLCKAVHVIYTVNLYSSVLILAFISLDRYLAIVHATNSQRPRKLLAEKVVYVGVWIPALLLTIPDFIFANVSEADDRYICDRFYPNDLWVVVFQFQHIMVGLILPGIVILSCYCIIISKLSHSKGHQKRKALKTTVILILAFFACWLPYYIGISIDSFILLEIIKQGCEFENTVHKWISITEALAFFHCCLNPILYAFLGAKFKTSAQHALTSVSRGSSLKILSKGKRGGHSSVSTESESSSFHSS
row,Binder,IC50 for Inhibition of CXCR4 Activation (β-Arrestin recruitment)
1,LRRYHHTVRSSLRPYTK [SEQ ID NO: 38],3 nM
2,LERFHHS[dA]RSSLRPYTK [SEQ ID NO: 55],4 nM
3,[dA]ERYHHSVRSSLRPYTK [SEQ ID NO: 34],> 1000 nM
4,[dA]ERYHHS[dA]RSSLRPYTK [SEQ ID NO: 35],291 nM
5,B1,33 nM
6,LERFHHSVRSSLRPYTK [SEQ ID NO: 54],3 nM
7,LRDYHHSVRSSLRPYTK [SEQ ID NO: 36],> 1000 nM
8,LDRYHHSVRSSLRPYTK [SEQ ID NO: 7],1.5 nM
9,LRRYHHSVRSTLRPYTK [SEQ ID NO: 71],3 nM
10,LDRYHHS[dA]RSSLRPYTK [SEQ ID NO: 8],3 nM
11,LRRYHHSVRSSLDPYTK [SEQ ID NO: 67],14 nM
12,LRRYHHSVRSSLRPYSK [SEQ ID NO: 72],5 nM
13,LRRYHHSVRSSLRPFTK [SEQ ID NO: 59],3 nM
14,LRRFHHSVRSSLRPYTK [SEQ ID NO: 53],3 nM
15,LERYHHSVRSSLRGYTK [SEQ ID NO: 80],4 nM
16,LERYHHS[dA]RSSLRPFTK [SEQ ID NO: 61],8 nM
17,LERYHHSVRSSLRPYT [SEQ ID NO: 18],24 nM
18,[dA]RRYHHSVRSSLRPYTK [SEQ ID NO: 33],7 nM
19,LRRYHHSVDSSLRPYTK [SEQ ID NO: 66],27 nM
20,LERYHHSVRSSLRPFTK [SEQ ID NO: 60],4 nM
21,LERYHHS[dA]RSSLRGYTK [SEQ ID NO: 81],3 nM
22,LERYNHS[dA]RSSLRPYTK [SEQ ID NO: 43],14 nM

# Molecular target: T1, CXCR4 on cultured U937 and Jurkat cells (human, UniProt P61073 1-352)
# Assay: cell-based or functional assay
# T1 sequence (P61073 whole entry): as above
row,Binder,Percent Inhibition of CXCL12 Mediated Migration (1.1 µM Test Article; Jurkat cells)
1,B1,30%
2,LERFHHSVRSSLRPYTK [SEQ ID NO: 54],54%
3,LDRYHHSVRSSLRPYTK [SEQ ID NO: 7],52%
4,LDRYHHS[dA]RSSLRPYTK [SEQ ID NO: 8],94%
5,LRRFHHSVRSSLRPYTK [SEQ ID NO: 53],59%
6,LERYHHSVRSSLRGYTK [SEQ ID NO: 80],71%
7,LERYHHSVRSSLRPYT [SEQ ID NO: 18],66%
8,LERYHHSVRSSLRPFTK [SEQ ID NO: 60],33%

# Molecular target: T1, CXCR4 on cultured U937 and Jurkat cells
# Assay: cell-based or functional assay
# Remark: another data set of the same source
Binder,Percent Inhibition of CXCR4/CXCL12 Induced p-MEK (100 nM Test Article),Percent Inhibition of CXCR4/CXCL12 Induced p-MEK (1 µM Test Article)
LRRYHHTVRSSLRPYTK [SEQ ID NO: 38],51%,96%
LERFHHS[dA]RSSLRPYTK [SEQ ID NO: 55],16%,72%
[dA]ERYHHSVRSSLRPYTK [SEQ ID NO: 34],-1%,2%
[dA]ERYHHS[dA]RSSLRPYTK [SEQ ID NO: 35],-7%,-6%
B1,10%,72%
LERFHHSVRSSLRPYTK [SEQ ID NO: 54],46%,92%
LRDYHHSVRSSLRPYTK [SEQ ID NO: 36],22%,-5%
LDRYHHSVRSSLRPYTK [SEQ ID NO: 7],60%,96%
LRRYHHSVRSTLRPYTK [SEQ ID NO: 71],56%,94%
LDRYHHS[dA]RSSLRPYTK [SEQ ID NO: 8],32%,88%
LRRYHHSVRSSLDPYTK [SEQ ID NO: 67],-8%,42%
LRRYHHSVRSSLRPYSK [SEQ ID NO: 72],8%,86%
LRRYHHSVRSSLRPFTK [SEQ ID NO: 59],43%,93%
LRRFHHSVRSSLRPYTK [SEQ ID NO: 53],62%,98%
LERYHHSVRSSLRGYTK [SEQ ID NO: 80],52%,96%
LERYHHS[dA]RSSLRPFTK [SEQ ID NO: 61],15%,46%
LERYHHSVRSSLRPYT [SEQ ID NO: 18],45%,78%
[dA]RRYHHSVRSSLRPYTK [SEQ ID NO: 33],7%,42%
LRRYHHSVDSSLRPYTK [SEQ ID NO: 66],-7%,13%
LERYHHSVRSSLRPFTK [SEQ ID NO: 60],34%,82%
LERYHHS[dA]RSSLRGYTK [SEQ ID NO: 81],-16%,20%
LERYNHS[dA]RSSLRPYTK [SEQ ID NO: 43],5%,40%

# Molecular target: T2, SNAP tagged-CXC4 receptor labeled with terbium (Tag-lite CXCR4 cells, HEK293) (UniProt P61073 1-352, SNAP tag labeled with terbium fluorescent dye)
# T2 construct: whole, on cells; Bought frozen cells (PerkinElmer-CisBio), HEK293 transiently expressing the receptor; also called terbium labeled CXCR receptor
# Assay: HTRF competition on Tag-lite CXCR4 HEK293 cells; competitor labelled CXCL12
# Protocol: (§1) Peptides were initially prepared as 1 mM stock in H₂O and tested at a final concentration of 400 nM. Following the manufacture's protocol, a frozen aliquot of Tag-lite CXCR4 cells was thawed and immediately seeded onto 384-well plates in TLB. Immediately following the addition of cells, 400 nM peptide (final concentration) in TLB was added to the appropriate well. […] The plates were covered in aluminum foil and left at room temperature for 3 hours. Following the 3 hour incubation period, the plates were removed from the incubator and fluorescence measured using a Cytation 1 plate reader using a HTRF filter cube ([…]; BioTek; Winooski, Vt.).
# T2 sequence (P61073 whole entry): as above
row,Binder,Percent Inhibition of CXCR4/CXCL12 Binding (400 nM peptide)
1,LRRYHHTVRSSLRPYTK [SEQ ID NO: 38],12%
2,LERFHHS[dA]RSSLRPYTK [SEQ ID NO: 55],56%
3,[dA]ERYHHSVRSSLRPYTK [SEQ ID NO: 34],-17%
4,[dA]ERYHHS[dA]RSSLRPYTK [SEQ ID NO: 35],-13%
5,LERFHHSVRSSLRPYTK [SEQ ID NO: 54],79%
6,LRDYHHSVRSSLRPYTK [SEQ ID NO: 36],-11%
7,LDRYHHSVRSSLRPYTK [SEQ ID NO: 7],89%
8,LRRYHHSVRSTLRPYTK [SEQ ID NO: 71],29%
9,LDRYHHS[dA]RSSLRPYTK [SEQ ID NO: 8],86%
10,LRRYHHSVRSSLDPYTK [SEQ ID NO: 67],3%
11,LRRYHHSVRSSLRPYSK [SEQ ID NO: 72],6%
12,LRRYHHSVRSSLRPFTK [SEQ ID NO: 59],-3%
13,LRRFHHSVRSSLRPYTK [SEQ ID NO: 53],5%
14,LERYHHSVRSSLRGYTK [SEQ ID NO: 80],88%
15,LERYHHS[dA]RSSLRPFTK [SEQ ID NO: 61],54%
16,LERYHHSVRSSLRPYT [SEQ ID NO: 18],57%
17,[dA]RRYHHSVRSSLRPYTK [SEQ ID NO: 33],77%
18,LRRYHHSVDSSLRPYTK [SEQ ID NO: 66],-5%
19,LERYHHSVRSSLRPFTK [SEQ ID NO: 60],60%
20,LERYHHS[dA]RSSLRGYTK [SEQ ID NO: 81],81%
21,LERYNHS[dA]RSSLRPYTK [SEQ ID NO: 43],53%

# Molecular target: T2, SNAP tagged-CXC4 receptor labeled with …
# Assay: as above
# Remark: another data set of the same source
# Protocol: as §1, with “H₂O. […]” for “H₂O and tested at a final concentration of 400 nM.”, “TLB.” for “TLB. Immediately following the addition of cells, 400 nM peptide (final concentration) in TLB was added to the appropriate well.”
row,Binder,IC50
1,LRRYHHTVRSSLRPYTK [SEQ ID NO: 38],175 nM
2,LERFHHS[dA]RSSLRPYTK [SEQ ID NO: 55],31 nM
3,[dA]ERYHHSVRSSLRPYTK [SEQ ID NO: 34],4540 nM
4,[dA]ERYHHS[dA]RSSLRPYTK [SEQ ID NO: 35],6310 nM
5,LERFHHSVRSSLRPYTK [SEQ ID NO: 54],8 nM
6,LRDYHHSVRSSLRPYTK [SEQ ID NO: 36],5990 nM
7,LDRYHHSVRSSLRPYTK [SEQ ID NO: 7],5 nM
8,LRRYHHSVRSTLRPYTK [SEQ ID NO: 71],133 nM
9,LDRYHHS[dA]RSSLRPYTK [SEQ ID NO: 8],9 nM
10,LRRYHHSVRSSLDPYTK [SEQ ID NO: 67],380 nM
11,LRRYHHSVRSSLRPYSK [SEQ ID NO: 72],589 nM
12,LRRYHHSVRSSLRPFTK [SEQ ID NO: 59],382 nM
13,LRRFHHSVRSSLRPYTK [SEQ ID NO: 53],108 nM
14,LERYHHSVRSSLRGYTK [SEQ ID NO: 80],6 nM
15,LERYHHSVRSSLRPYT [SEQ ID NO: 18],18 nM
16,[dA]RRYHHSVRSSLRPYTK [SEQ ID NO: 33],42 nM
17,LRRYHHSVDSSLRPYTK [SEQ ID NO: 66],563 nM
18,LERYHHSVRSSLRPFTK [SEQ ID NO: 60],17 nM
19,LERYHHS[dA]RSSLRGYTK [SEQ ID NO: 81],23 nM
